Numbering of substitutions follows the chain as printed. In names and notes the source's numbering stands.

The chains are these.
B1: 2,5-diketo-D-gluconic acid reductase A (Corynebacterium sp., wild type SEQ ID NO:1) variant K232S (Corynebacterium sp. ATCC 31090; K232S) (protein)
chain: MTVPSIVLNDGNSIPQLGYGVFKVPPADTQRAVEEALEVGYRHIDTAAIYGNEEGVGAAIAASGIARDDLFITTKLWNDRHDGDEPAAAIAESLAKLALDQVDLYLVHWPTPAADNYVHAWEKMIELRAAGLTRSIGVSNHLVPHLERIVAATGVVPAVNQIELHPAYQQREITDWAAAHDVKIESWGPLGQGKYDLFGAEPVTAAAAAHGKTPAQAVLRWHLQKGFVVFPSSVRRERLEENLDVFDFDLTDTEIAAIDAMDPGDGSGRVSAHPDEVD
notes: GroES fragment (N); made in house; host or cells: E. coli JM109
B2: 2,5-diketo-D-gluconic acid reductase A, wild type, Corynebacterium sp. (ATCC Strain No. 31090; Genbank Accession No. 4699594; SEQ ID NO:1) (Corynebacterium sp. … (protein)
chain: B1 chain with S232K
notes: as for B1
B3: 2,5-diketo-D-gluconic acid reductase A (Corynebacterium sp., wild type SEQ ID NO:1) variant R238E (Corynebacterium sp. ATCC 31090; R238E) (protein)
chain: B1 chain with S232K, R238E
notes: as for B1
B4: 2,5-diketo-D-gluconic acid reductase A (Corynebacterium sp., wild type SEQ ID NO:1) variant K232G (Corynebacterium sp. ATCC 31090; K232G) (protein)
chain: B1 chain with S232G
notes: as for B1
B5: 2,5-diketo-D-gluconic acid reductase A (Corynebacterium sp., wild type SEQ ID NO:1) variant R235G (Corynebacterium sp. ATCC 31090; R235G) (protein)
chain: B1 chain with S232K, R235G
notes: as for B1
B6: 2,5-diketo-D-gluconic acid reductase A (Corynebacterium sp., wild type SEQ ID NO:1) variant R235T (Corynebacterium sp. ATCC 31090; R235T) (protein)
chain: B1 chain with S232K, R235T
notes: as for B1
B7: 2,5-diketo-D-gluconic acid reductase A (Corynebacterium sp., wild type SEQ ID NO:1) variant R238H (Corynebacterium sp. ATCC 31090; R238H) (protein)
chain: B1 chain with S232K, R238H
notes: as for B1
B8: 2,5-diketo-D-gluconic acid reductase A (Corynebacterium sp., wild type SEQ ID NO:1) variant K232M (Corynebacterium sp. ATCC 31090; K232M) (protein)
chain: B1 chain with S232M
notes: as for B1
B9: 2,5-diketo-D-gluconic acid reductase A (Corynebacterium sp., wild type SEQ ID NO:1) variant K232Q (Corynebacterium sp. ATCC 31090; K232Q) (protein)
chain: B1 chain with S232Q
notes: as for B1

Substrate in the first data set: O=C(O)C(=O)[C@@H](O)[C@H](O)C(=O)CO
As to the kind of experiment: purified protein, by the assay type. The format is biochemical, Corynebacterium sp. The settings on record: other: Kb = Michaelis constant for 2,5-diketo-D-gluconic acid, cofactor NADH, pH 7.0, 25° C. As to the method: The activities of the purified enzymes were assayed in 96-well microtiter plates on a plate reader.
Equation (1) is: [formula]
B=2,5-diketo-D-gluconic acid concentration;
Kb=Michaelis Constant for 2,5-diketo-D-gluconic acid;
Kia=Dissociation Constant for NADH;
Et=Total enzyme concentration.
However, the parameters could not be fit in this model with any accuracy, due to the large apparent value of KM for 2,5-diketo-D-gluconic acid, and the low concentration of 2,5-diketo-D-gluconic acid that was used. The 2,5-diketo-D-gluconic acid concentrations were not large enough to saturate the enzyme, so a further mathematical simplification was required. Preliminary fitting of the model indicated both kcat and Kb to be very large in comparison to Ka and Kia Therefore, the rate equation was simplified to the following equation (2): [formula]
This equation is only valid when B<<Kb.
This equation was then used to fit the kinetic data, with much better results.
Other comparisons can also be made between the different mutants using these parameters. […]
Cells containing plasmids for some of the mutant reductases were grown up on a 1 liter scale using a 10 ml inoculum from a saturated overnight culture. The cells were grown until absorbance of the culture at 600 nm was approximately 1.0. The cells were then induced by adding IPTG to a final concentration of 1 mM. The cells were harvested after growth at 37° C. for 4 hours. The cells were then pelleted by centrifugation and frozen for later use. At a later date, cells were thawed and lysed with the Bug Buster detergent (Novagen) containing Complete Protease Inhibitor Cocktail Tablets (Roche). The pH was lowered to 5.5 with 20 mM sodium acetate (NaOAc) and NaCl was added to a final concentration of 0.15 M. After 10 minutes with the detergent, the cell debris was removed by centrifugation, and the supernatant was loaded onto disposable chromatography columns containing a 10 ml bed volume of DEAE Cellulose (Sigma) for a batch weak ion exchange step. The resin was washed with 0.15 M NaCl, still in the presence of NaOAc, pH 5.5. The bound proteins were then eluted by two washes with 0.5 M NaCl. The eluted material was then diluted back to 0.15 M NaCl by the addition of more 20 mM NaOAc buffer. This was then loaded onto a 4.6 mmD/100mml PEEK column (PerSeptive Biosystems) containing 50 μm DEAE Ceramic HyperD F resin (BioSepra) using an FPLC system. The high performance resin was washed with 0.1 M NaCl and the bound proteins were eluted using a linear salt gradient up to 0.4 M NaCl. Active fractions were pooled and the pH was raised to 7.0 using 50 mM bis-Tris. The pooled fractions were then concentrated by ultrafiltration in a stirred cell unit using a polyethersulfone membrane with a 10,000 MW cut-off (Millipore). The concentrate was loaded onto a Superdex-75 gel filtration column (Pharmacia) using 50 mM bis-Tris pH 7.0 with an FPLC system. The active fractions were again pooled. A small sample from the pooled fractions was electrophoresed on a polyacrylamide gel in the presence of SDS in order to insure homogeneity of the final product.
NADPH and NADH were prepared fresh for each use in kinetic measurements. These reactions were performed in 96-well microtiter plates using a SpectraMax 190 plate reader (Molecular Devices). Varying amounts of cofactor and substrate were added to the wells and reaction was initiated by the addition of the mutant enzyme. The final volume of each reaction was 200 μl, the reactions were buffered with 50 mM bis-Tris pH 7.0, and the temperature was held at 25° C. […] Initial rate data was collected in each well, and a standard curve was generated each day in order to correlate the change in absorbance of the reaction to a change in concentration of cofactors. All measurements were performed in triplicate (at least) and the runs were averaged for use in kinetic modeling.
In the case of B1, the kcat/Km is listed as 0.318 ± 0.018 min^−1/mm^−1.

B2: the kcat/Km is 0.724 ± 0.026 min^−1/mm^−1. As for B3, the kcat/Km is given as 1.49 ± 0.24 min^−1/mm^−1. With B4, the kcat/Km stood at 0.874 ± 0.028 min^−1/mm^−1. With B5, the kcat/Km is 3.58 ± 0.023 min^−1/mm^−1. For the protein B6, the kcat/Km turned out to be 1.34 ± 0.28 min^−1/mm^−1. The same measure, in the same setting: for B7 the value was 3.87 ± 0.13 min^−1/mm^−1.

Substrate in another data set: O=C(O)C(=O)[C@@H](O)[C@H](O)C(=O)CO
Nature of the data set: purified protein, by the assay type. Type of data set: biochemical, Corynebacterium sp. To be noted: other: Kb = Michaelis constant for 2,5-diketo-D-gluconic acid, cofactor NADH, pH 7.0, 25° C. This is another data set of the same source.
Protocol: Cells containing plasmids for some of the mutant reductases were grown up on a 1 liter scale using a 10 ml inoculum from a saturated overnight culture. The cells were grown until absorbance of the culture at 600 nm was approximately 1.0. The cells were then induced by adding IPTG to a final concentration of 1 mM. The cells were harvested after growth at 37° C. for 4 hours. The cells were then pelleted by centrifugation and frozen for later use. At a later date, cells were thawed and lysed with the Bug Buster detergent (Novagen) containing Complete Protease Inhibitor Cocktail Tablets (Roche). […]
These reactions were performed in 96-well microtiter plates using a SpectraMax 190 plate reader (Molecular Devices). […] Initial rate data was collected in each well, and a standard curve was generated each day in order to correlate the change in absorbance of the reaction to a change in concentration of cofactors. […]
Consider B8, for which the kcat/Km came out at 0.593 ± 0.023 min^−1/mm^−1. As for B9, the kcat/Km stood at 0.634 ± 0.037 min^−1/mm^−1.

The values above are taken from patent US6423518B1, “Design and production of mutant 2,5-diketo-D-gluconic acid reductase enzymes with altered cofactor dependency” (Rutgers, the State University, priority 2000, dated 2002).
